Reference: article PMC11914300, “Immediate early splicing controls translation in activated T-cells and is mediated by hnRNPC2 phosphorylation”

Key:
Conditions in all cases: protein: recombinant; tags: N-terminal Twin-Strep-SUMO, removed with PreScission protease; chain copies: 4; label: 5' 32P
hnRNPC2 WT [1] = biological target: T1, hnRNPC2 WT (UniProt P07910 1-306); assay: EMSA; 0-10 uM protein, 10 pmol RNA; EMSA: 20 mM Tris-HCl pH 8.0, 0.25 M NaCl, 1 mM DTT, 10% glycerol, 0.2 mM EDTA; 37 C, 20 min; 5% polyacrylamide gel
T1 sequence (P07910 whole entry): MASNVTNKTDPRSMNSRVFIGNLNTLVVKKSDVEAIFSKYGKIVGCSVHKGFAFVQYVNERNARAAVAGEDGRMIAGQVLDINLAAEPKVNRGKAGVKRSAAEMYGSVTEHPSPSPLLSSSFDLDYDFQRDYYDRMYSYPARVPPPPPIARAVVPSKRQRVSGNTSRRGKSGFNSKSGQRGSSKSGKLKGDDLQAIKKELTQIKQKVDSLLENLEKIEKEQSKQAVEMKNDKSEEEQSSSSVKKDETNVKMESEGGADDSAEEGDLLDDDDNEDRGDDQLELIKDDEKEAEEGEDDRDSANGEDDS

hnRNPC2 S115D = hnRNPC2 S115D (UniProt P07910 1-306, S115D); assay: EMSA; 0-2000 nM protein, 10 pmol RNA; no difference from WT; EMSA: 20 mM Tris-HCl pH 8.0, 0.25 M NaCl, 1 mM DTT, 10% glycerol, 0.2 mM EDTA; 37 C, 20 min; 5% polyacrylamide gel
Chain of hnRNPC2 S115D (P07910 whole entry S115D): as the sequence (P07910 whole entry) above, with S115D counted along it

hnRNPC2 WT [2] = biological target: T1, hnRNPC2 WT; assay: EMSA; 0-2000 nM protein, 10 pmol RNA; higher affinity than intron RNAs; EMSA: 20 mM Tris-HCl pH 8.0, 0.25 M NaCl, 1 mM DTT, 10% glycerol, 0.2 mM EDTA; 37 C, 20 min; 5% polyacrylamide gel

ACCCCCUGCACACUUACCCAAUCCUUUUAG (ssRNA) [RPL10 intron 6 3' splice site RNA]: binds (hnRNPC2 WT [1]).

AUCUCUUGGCUAUCCCUCUUGCUUCUCCAG (ssRNA) [eIF5A intron 5 3' splice site RNA]: binds (hnRNPC2 WT [1]).

UUUUUUUUUUUUUUUUUUUUUUUUUUUUUUUUUUUUUUUUUUUUU (ssRNA) [poly-U 45 nt]: binds (hnRNPC2 S115D); binds (hnRNPC2 WT [2]).
